The target of assay [1] is tau pathology in PSP and AD (Homo sapiens, UniProt P10636). Put plainly: immunostaining of cells or tissue.
The target of assay [2] is Abeta in AD (senile plaques) (Homo sapiens, UniProt P05067). Put plainly: immunostaining of cells or tissue.

tau pathology in PSP and AD, sequence (P10636 whole entry): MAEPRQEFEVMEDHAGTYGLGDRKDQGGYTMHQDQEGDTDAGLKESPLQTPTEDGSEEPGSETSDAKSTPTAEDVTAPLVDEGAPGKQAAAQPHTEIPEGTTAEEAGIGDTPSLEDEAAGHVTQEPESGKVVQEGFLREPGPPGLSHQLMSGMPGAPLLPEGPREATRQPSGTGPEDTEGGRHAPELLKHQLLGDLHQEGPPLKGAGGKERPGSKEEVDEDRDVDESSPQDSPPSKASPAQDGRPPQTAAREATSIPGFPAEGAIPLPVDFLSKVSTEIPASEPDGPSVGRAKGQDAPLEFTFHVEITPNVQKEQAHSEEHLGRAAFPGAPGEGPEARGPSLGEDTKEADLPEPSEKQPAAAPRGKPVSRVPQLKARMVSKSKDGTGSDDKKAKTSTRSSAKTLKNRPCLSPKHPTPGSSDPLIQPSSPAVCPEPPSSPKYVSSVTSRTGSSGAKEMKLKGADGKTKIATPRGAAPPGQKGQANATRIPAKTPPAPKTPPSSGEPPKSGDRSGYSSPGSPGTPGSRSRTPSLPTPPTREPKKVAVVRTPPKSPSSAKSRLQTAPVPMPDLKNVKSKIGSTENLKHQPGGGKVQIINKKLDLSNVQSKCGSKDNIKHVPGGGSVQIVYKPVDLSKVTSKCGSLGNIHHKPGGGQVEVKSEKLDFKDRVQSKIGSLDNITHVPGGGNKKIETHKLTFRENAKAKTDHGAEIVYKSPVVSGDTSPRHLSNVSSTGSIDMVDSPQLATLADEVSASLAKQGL

B1: 306C7B3 (native IgG purified from the hybridoma clone) (antibody, V domains shown)
VH: EVQLVESGGGLVKPGGSRKLSCAASGFTFSDHGMHWVRQAPEKGLEWVAYISSGSSTIYYADTVKGRFTISRDNAKNTLFLQMTSLRSEDTAMYYCARSYIPYWGQGTLVTVSA
VL: DVVMTQTPLSLPVSLGDQASISCRSSQSLVHSNGNTYLHWYLQKPGQSPKLLIYKVSNRFSGVPDRFSGSGSGTDFTLKISRVEAEDLGVYFCSQSTHVPWTFGGGTKLEIK
For the molecule B1, the binding result in assay [1] and in assay [2] was “no binding (tested: 1:10000 dilution)” each time.

The record behind these values is paper doi:10.1101/2022.11.30.518485 (bioRxiv, 2022).
